Test results published in paper PMC8857482.

B1: 54 bp target dsDNA (dsDNA)
DNA 1: GGAAGCCATCCAGGTAGACGCGGACATCAAGCCCGCCGTGAAGGTGCAGCTGCT
DNA 2: AGCAGCTGCACCTTCACGGCGGGCTTGATGTCCGCGTCTACCTGGATGGCTTCC

These molecules were tested against Csy complex with Cas7f (K58A/K60A) (Pseudomonas aeruginosa) (UniProt Q02ML9) (assay: MST).
AcrIF13 (natural protein) showed a Kd of 34.2 nM.

The molecules below were run against type I-F CRISPR-Cas surveillance complex (Csy complex) (Pseudomonas aeruginosa) (UniProt Q02ML9) (assay: MST).
AcrIF13 E50K (natural protein) was tested, and the Kd was 18.1 nM.
For AcrIF13 D102K (natural protein), the Kd was 9.21 nM.
AcrIF13 E97K (natural protein) gave a Kd of 14.3 nM.
AcrIF13 D21K/E22K (natural protein) showed a Kd of 29.8 nM.
AcrIF13 D63K (natural protein) showed a Kd of 24.6 nM.
“AcrIF13 E82K/E83K/D84K (natural protein)” gave a Kd of 7.22 nM.
With AcrIF13 D45K/D46K (natural protein) the Kd was 6.22 nM.
Molecule AcrIF13 E57K (natural protein) has a Kd of 5.39 nM.
Work on AcrIF13 E10K (natural protein) yielded a Kd of 22.3 nM.
AcrIF13 (natural protein) showed a Kd of 1.51 nM.
AcrIF13 E18K (natural protein) showed a Kd of 2.55 nM.
AcrIF13 D113K (natural protein) gave a Kd of 67.7 nM.
With AcrIF13 E40K (natural protein) the Kd was 5.17 nM.
In the case of AcrIF13 D43K/D44K (natural protein), the Kd is reported as 1.85 nM.

These molecules were tested against Csy complex with Cas8f (N250D) (Pseudomonas aeruginosa) (UniProt Q02ML9) (assay: MST).
Work on AcrIF13 (natural protein) yielded a Kd of 647 nM.

Each molecule was assayed against T1, Csy complex (type I-F surveillance complex: Cas8f, Cas5f, Cas7f, Cas6f + crRNA) (Pseudomonas aeruginosa, UniProt Q02ML9;Q02MM0;Q02MM1;Q02MM2 1-434;1-327;1-342;1-187) (assay: EMSA).
T1 sequence 1: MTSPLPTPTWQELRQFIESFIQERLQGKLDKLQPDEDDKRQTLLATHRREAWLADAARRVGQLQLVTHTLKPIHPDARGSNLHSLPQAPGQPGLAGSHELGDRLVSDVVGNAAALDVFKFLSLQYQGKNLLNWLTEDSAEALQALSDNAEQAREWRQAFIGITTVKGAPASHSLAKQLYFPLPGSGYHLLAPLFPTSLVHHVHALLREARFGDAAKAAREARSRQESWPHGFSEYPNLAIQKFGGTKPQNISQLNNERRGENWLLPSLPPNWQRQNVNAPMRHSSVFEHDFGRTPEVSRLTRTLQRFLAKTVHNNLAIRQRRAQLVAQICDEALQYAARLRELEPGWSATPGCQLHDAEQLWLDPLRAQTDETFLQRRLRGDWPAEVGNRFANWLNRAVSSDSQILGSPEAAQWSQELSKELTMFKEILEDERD
T1 sequence 2: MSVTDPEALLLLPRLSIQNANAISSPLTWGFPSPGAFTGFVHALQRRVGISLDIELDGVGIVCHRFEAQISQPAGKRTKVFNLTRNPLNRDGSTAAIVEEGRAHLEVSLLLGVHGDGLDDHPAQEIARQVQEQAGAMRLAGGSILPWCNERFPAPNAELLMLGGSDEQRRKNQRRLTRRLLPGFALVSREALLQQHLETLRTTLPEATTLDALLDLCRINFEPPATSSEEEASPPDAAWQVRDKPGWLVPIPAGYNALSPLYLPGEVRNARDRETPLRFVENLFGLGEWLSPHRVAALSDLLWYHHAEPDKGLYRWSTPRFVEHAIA
T1 sequence 3: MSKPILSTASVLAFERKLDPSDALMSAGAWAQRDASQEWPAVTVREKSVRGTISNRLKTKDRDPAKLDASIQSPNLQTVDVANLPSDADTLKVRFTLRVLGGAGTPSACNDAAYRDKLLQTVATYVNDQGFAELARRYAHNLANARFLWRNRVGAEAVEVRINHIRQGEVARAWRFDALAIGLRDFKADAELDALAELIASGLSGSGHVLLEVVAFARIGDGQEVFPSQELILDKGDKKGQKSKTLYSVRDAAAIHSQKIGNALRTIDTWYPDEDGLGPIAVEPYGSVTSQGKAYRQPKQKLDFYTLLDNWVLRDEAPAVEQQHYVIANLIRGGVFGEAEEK
T1 sequence 4: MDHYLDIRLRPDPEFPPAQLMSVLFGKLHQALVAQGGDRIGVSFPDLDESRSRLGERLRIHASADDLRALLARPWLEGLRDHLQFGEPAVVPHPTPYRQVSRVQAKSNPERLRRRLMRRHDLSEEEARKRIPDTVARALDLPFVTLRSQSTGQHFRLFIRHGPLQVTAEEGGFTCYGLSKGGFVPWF
B1: binds.
